Numbering of substitutions follows the chain as printed. Names and notes keep the numbering of the source. Where two headings read alike, the source gives them in different places. Marks after values point to notes of the source that are not given here.
Experiments:
Met-tagged onconase = experiment: In vivo catalytic activity of MetAPs co-expressed with Met-tagged onconase in E. coli BL21(DE3); N-terminus by Edman degradation; type: cell-based; conditions: in vivo in E. coli
Excerpt: Residues Tyr168, Met206 and Gln233 in the putative substrate-binding site of E. coli MetAP were mutated by site-directed mutagenesis based on the crystal structure and amino acid sequence alignment of MetAPs (Ben-Bassat et al., 1987; Lowther et al., 1999; Walker et al., 1999). For the expression of secretory ribonucleases, the ribonuclease gene was cloned and expressed as described previously (Huang et al., 1998).
Most of the co-expressed target protein, e.g., onconase or RC-RNase L1, existed in insoluble cell lysate. They were denatured, renatured and purified as described previously (Liao et al., 2003). The purified ribonucleases were stored in 20 mM sodium phosphate, pH 7.0, for pyroglutamate formation at the N-terminus. Alternatively, the ribonuclease secreted into culture medium through pe1B system was concentrated and purified to electrophoretical homogeneity at a yield of 1˜5 mg per 1 liter of culture (Huang et al., 1998).

synthetic oligopeptides = type: biochemical; conditions: for Specific activity (unit/mg): 4 mM oligopeptide, pH 7.5, 37° C.
Procedure: The oligopeptide substrates used in this experiment were synthesized on the 432A Synergy peptide synthesizer (Applied Biosystems, Foster, Calif., USA). The enzymatic activity of purified MetAP was assayed as described by Ben-Bassat et al., 1987. Briefly, the diluted MetAP enzyme in 10 μl was added to 90 μl of the substrate solution containing 4 mM oligopeptide, 0.1 M potassium phosphate buffer, pH 7.5 and 0.2 mM CoCl2, incubated at 37° C. for 10 min and stopped in boiling water for 2 min. After addition of 0.9 ml of color development mixture containing 0.2 mg of L-amino acid oxidase, 0.03 mg of horseradish peroxidase and 0.2 mg of o-dianisidine in 0.1 M Tris-HCl, pH 7.4, the mixtures were incubated for 10 min at 37° C., and the optical density at 440 nm was recorded. One unit of activity is defined as 1 μmol of amino acids produced per min under the assay conditions and the pure Met was used as standard. The N-terminal residues of the MetAP-treated oligopeptide were further verified by Edman degradation.

[1] = E. coli MetAP mutations; Chiu et al. 1999; cited from earlier work
RC-RNase4 = experiment: In vivo Met removal, co-expression in E. coli, RC-RNase 4 substrate; type: cell-based, Rana catesbeiana; conditions: substrate MAAWA (SEQ ID NO:15)-RC4; solubility −
Procedure: The MetAP was expressed alone or co-expressed with a target protein, i.e., onconase and RC-RNaseL1, in E. coli BL21 (DE3) in the presence of 0.5 mM IPTG at 37° C.
Proteins in the cell pellet or in the soluble fraction were separated by 13.3% SDS-PAGE and contact-transferred to ProBlott™ membrane (Applied Bioystems) in transfer buffer (10 mM Tris-HCl, pH 7.5, 50 mM NaCl, 2 mM EDTA, 0.5 mM 2-mercaptoethanol) overnight. The five N-terminal residues of the transferred protein were determined by Edman degradation. The percentage of Met removal was calculated by dividing the amount of proteins initiated with the penultimate residue with the amount of total proteins (including proteins initiated with the penultimate residue and unprocessed protein initiated with Met) after the first degradation cycle. In theory, this percentage should remain the same after each degradation cycle. Therefore, in order to avoid experimental variation, the same calculation was made from five consecutive degradation cycles, e.g., M, Q, N, W and L for onconase. The efficiency of Met removal is reported as the mean values of at least three cycles.

[2] = target: Met-tagged onconase with different penultimate residue (Escherichia coli, UniProt P0AE18); conditions: adapted from Hirel et al., 1989, cited from earlier work
[3] = substrate MAA-Onc, listed as wild type E. coli MetAP

B1: MetAP-Q233G: E. coli MetAP with Gln233 replaced by Gly (protein, UniProt P0AE18 2-264, looked up, variant Q233G)
Methionine aminopeptidase: AISIKTPEDIEKMRVAGRLAAEVLEMIEPYVKPGVSTGELDRICNDYIVNEQHAVSACLGYHGYPKSVCISINEVVCHGIPDDAKLLKDGDIVNIDVTVIKDGFHGDTSKMFIVGKPTIMGERLCRITQESLYLALRMVKPGINLREIGAAIQKFVEAEGFSVVREYCGHGIGRGFHEEPQVLHYDSRETNVVLKPGMTFTIEPMVNAGKKEIRTMKDGWTVKTKDRSLSAGYEHTIVVTDNGCEILTLRKDDTIPAIISHDE
- Catalytic activity (%): removal of N-terminal Met (Met-tagged onconase; substrate MQD-Onc): 74%

B2: MetAP-M206T: E. coli MetAP with Met206 replaced by Thr (protein, UniProt P0AE18 2-264, looked up, variant M206T)
Methionine aminopeptidase: B1 Methionine aminopeptidase with M205T, G232Q
- Catalytic activity (%): removal of N-terminal Met (Met-tagged onconase; substrate MQD-Onc): 86%

B3: MetAP-*GG (protein)
chain: B1 Methionine aminopeptidase with M205G
- Specific activity (unit/mg) (synthetic oligopeptides; substrate MADY (SEQ ID NO:7)): 0.51 ± 0.01 unit/mg
- Specific activity (unit/mg) (synthetic oligopeptides; substrate MADYLT (SEQ ID NO:8)): 0.29 ± 0.01 unit/mg
- Specific activity (unit/mg) (synthetic oligopeptides; substrate MQDYLT (SEQ ID NO:9)): 0.29 ± 0.02 unit/mg
- Specific activity (unit/mg) (synthetic oligopeptides; substrate […] (SEQ ID NO:5)): 3.28 ± 0.04 unit/mg
- Specific activity (unit/mg) (synthetic oligopeptides; substrate […] (SEQ ID NO:6)): 0.50 ± 0.02 unit/mg
- Catalytic activity (%): removal of N-terminal Met (Met-tagged onconase; substrate MID-Onc): 5%
- Catalytic activity (%): removal of N-terminal Met (Met-tagged onconase; substrate MLD-Onc): 18%
- Catalytic activity (%): removal of N-terminal Met (Met-tagged onconase; substrate MQD-Onc): 96%

B4: MetAP-M206G: E. coli MetAP with Met206 replaced by Gly (protein, UniProt P0AE18 2-264, looked up, variant M206G)
Methionine aminopeptidase: B1 Methionine aminopeptidase with M205G, G232Q
- Catalytic activity (%): removal of N-terminal Met (Met-tagged onconase; substrate MQD-Onc): 85%

B5: MetAP-M206V: E. coli MetAP with Met206 replaced by Val (protein, UniProt P0AE18 2-264, looked up, variant M206V)
Methionine aminopeptidase: B1 Methionine aminopeptidase with M205V, G232Q
- Catalytic activity (%): removal of N-terminal Met (Met-tagged onconase; substrate MQD-Onc): 61%

B6: MetAP-*TT (protein)
chain: B1 Methionine aminopeptidase with M205T, G232T
- Specific activity (unit/mg) (synthetic oligopeptides; substrate MADY (SEQ ID NO:7)): 0.38 ± 0.03 unit/mg
- Specific activity (unit/mg) (synthetic oligopeptides; substrate MADYLT (SEQ ID NO:8)): 0.12 ± 0.01 unit/mg
- Specific activity (unit/mg) (synthetic oligopeptides; substrate MQDYLT (SEQ ID NO:9)): 0.13 ± 0.01 unit/mg
- Specific activity (unit/mg) (synthetic oligopeptides; substrate […] (SEQ ID NO:5)): 1.00 ± 0.08 unit/mg
- Specific activity (unit/mg) (synthetic oligopeptides; substrate […] (SEQ ID NO:6)): 0.25 ± 0.01 unit/mg
- Catalytic activity (%): removal of N-terminal Met (Met-tagged onconase; substrate MQD-Onc): 93%

B7: C59S: E. coli MetAP mutation in the putative substrate-binding pocket (protein, UniProt P0AE18 2-264, looked up, variant C59S)
Methionine aminopeptidase: B1 Methionine aminopeptidase with C58S, G232Q
- Catalytic activity, % activity of the wild type [1]: do not reduce catalytic activity

B8: MetAP-Q233T: E. coli MetAP with Gln233 replaced by Thr (protein, UniProt P0AE18 2-264, looked up, variant Q233T)
Methionine aminopeptidase: B1 Methionine aminopeptidase with G232T
- Catalytic activity (%): removal of N-terminal Met (Met-tagged onconase; substrate MQD-Onc): 88%

B9: Y65F: E. coli MetAP mutation in the putative substrate-binding pocket (protein, UniProt P0AE18 2-264, looked up, variant Y65F)
Methionine aminopeptidase: B1 Methionine aminopeptidase with Y64F, G232Q
- Catalytic activity, % activity of the wild type [1]: do not reduce catalytic activity

B10: Y62F: E. coli MetAP mutation in the putative substrate-binding pocket (protein, UniProt P0AE18 2-264, looked up, variant Y62F)
Methionine aminopeptidase: B1 Methionine aminopeptidase with Y61F, G232Q
- Catalytic activity, % activity of the wild type [1]: do not reduce catalytic activity

B11: MetAP-YMQ: wild type E. coli Met aminopeptidase (SEQ ID NO:1) (protein, listed as Escherichia coli)
chain: MAISIKTPEDIEKMRVAGRLAAEVLEMIEPYVKPGVSTGELDRICNDYIVNEQHAVSACLGYHGYPKSVCISINEVVCHGIPDDAKLLKDGDIVNIDVTVIKDGFHGDTSKMFIVGKPTIMGERLCRITQESLYLALRMVKPGINLREIGAAIQKFVEAEGFSVVREYCGHGIGRGFHEEPQVLHYDSRETNVVLKPGMTFTIEPMVNAGKKEIRTMKDGWTVKTKDRSLSAQYEHTIVVTDNGCEILTLRKDDTIPAIISHDE
- In vitro catalytic activity (synthetic oligopeptides; oligopeptides ranging from tetra- to dodecapeptides with Ala at the penultimate site): high catalytic activity
- Specific activity (unit/mg) (synthetic oligopeptides; substrate MADY (SEQ ID NO:7)): 138 ± 8 unit/mg
- Specific activity (unit/mg) (synthetic oligopeptides; substrate MADYLT (SEQ ID NO:8)): 138 ± 6 unit/mg
- Specific activity (unit/mg) (synthetic oligopeptides; substrate MQDYLT (SEQ ID NO:9)): 0.43 ± 0.01 unit/mg
- Specific activity (unit/mg) (synthetic oligopeptides; substrate […] (SEQ ID NO:5)): 85 ± 13 unit/mg
- Specific activity (unit/mg) (synthetic oligopeptides; substrate […] (SEQ ID NO:6)): 0.62 ± 0.08 unit/mg
- Catalytic activity (%): percent of penultimate residue removed (RC-RNase4): removed
- Catalytic activity (%): removal of N-terminal Met (RC-RNase4): removed
- Catalytic activity (%): efficiency of Met removal by wild type MetAP ([2]; substrate MAD-Onc): 100%
- Catalytic activity (%): efficiency of Met removal by wild type MetAP ([2]; substrate MDD-Onc): ~20%
- Catalytic activity (%): efficiency of Met removal by wild type MetAP ([2]; substrate MED-Onc): 0%
- Catalytic activity (%): efficiency of Met removal by wild type MetAP ([2]; substrate MFD-Onc): 0%
- Catalytic activity (%): efficiency of Met removal by wild type MetAP ([2]; substrate MGD-Onc): 100^c %
- Catalytic activity (%): efficiency of Met removal by wild type MetAP ([2]; substrate MHD-Onc): 0%
- Catalytic activity (%): efficiency of Met removal by wild type MetAP ([2]; substrate MID-Onc): ~20%
- Catalytic activity (%): efficiency of Met removal by wild type MetAP ([2]; substrate MKD-Onc): 0%
- Catalytic activity (%): efficiency of Met removal by wild type MetAP ([2]; substrate MLD-Onc): ~20%
- Catalytic activity (%): efficiency of Met removal by wild type MetAP ([2]; substrate MMD-Onc): 0%
- Catalytic activity (%): efficiency of Met removal by wild type MetAP ([2]; substrate MND-Onc): ~20%
- Catalytic activity (%): efficiency of Met removal by wild type MetAP ([2]; substrate MPD-Onc): 80–90%
- Catalytic activity (%): efficiency of Met removal by wild type MetAP ([2]; substrate MQD-Onc): 0%
- Catalytic activity (%): efficiency of Met removal by wild type MetAP ([2]; substrate MRD-Onc): 0%
- Catalytic activity (%): efficiency of Met removal by wild type MetAP ([2]; substrate MSD-Onc): 80–90%
- Catalytic activity (%): efficiency of Met removal by wild type MetAP ([2]; substrate MTD-Onc): 80–90%
- Catalytic activity (%): efficiency of Met removal by wild type MetAP ([2]; substrate MVD-Onc): 80–90%
- Catalytic activity (%): efficiency of Met removal by wild type MetAP ([2]; substrate MWD-Onc): 0%
- Catalytic activity (%): efficiency of Met removal by wild type MetAP ([2]; substrate MWD-Onc, listed as wild type MetAP): inactive
- Catalytic activity (%): efficiency of Met removal by wild type MetAP ([2]; substrate MYD-Onc): 0%
- Catalytic activity (%): efficiency of Met removal by wild type MetAP ([2]; substrate MYD-Onc, listed as wild type MetAP): inactive
- Catalytic activity (%): percent of penultimate residue removed (Met-tagged onconase; substrate MAA-Onc): 77%
- Catalytic activity (%): removal of N-terminal Met (Met-tagged onconase; substrate MAA-Onc): 85%
- Catalytic activity (%): percent of penultimate residue removed (Met-tagged onconase; [3]): removed
- Catalytic activity (%): removal of N-terminal Met (Met-tagged onconase; [3]): removed
- Catalytic activity (%): percent of penultimate residue removed (Met-tagged onconase; substrate MAG-Onc): 63%
- Catalytic activity (%): removal of N-terminal Met (Met-tagged onconase; substrate MAG-Onc): 80%
- Catalytic activity (%): removal of N-terminal Met (Met-tagged onconase; substrate MQD-Onc, listed as wild type MetAP): failed altogether
- Catalytic activity (%): removal of N-terminal Met (Met-tagged onconase; substrate MQD-Onc, listed as wild type enzyme): no activity

Source: US7109015B2, “Removal of N-terminal methionine from proteins by engineered methionine aminopeptidase” (Academia Sinica, priority 2004, dated 2006)
